Residue numbers refer to the chain shown, from its start. Names and notes keep the numbering of the source.
B1: CE115HA000 T57K one-arm antibody (antibody, human IgG1, kappa, L234A L235A, N297A, name in Kabat numbering)
heavy: QVQLVESGGGVVQPGRSLRLSCAASGFTFSNAWMHWVRQAPGKGLEWVAQIKAKSNNYAKYYAESVKGRFTISRDDSKNSLYLQMNSLKTEDTAVYYCRYVHYGAYYGVDAWGQGTTVTVSSASTKGPSVFPLAPSSKSTSGGTAALGCLVKDYFPEPVTVSWNSGALTSGVHTFPAVLQSSGLYSLSSVVTVPSSSLGTQTYICNVNHKPSNTKVDKKVEPKSCDKTHTCPPCPAPEAAGGPSVFLFPPKPKDTLMISRTPEVTCVVVDVSHEDPEVKFNWYVDGVEVHNAKTKPREEQYASTYRVVSVLTVLHQDWLNGKEYKCKVSNKALPAPIEKTISKAKGQPREPQVYTLPPSRCELTKNQVSLSCAVKGFYPSDIAVEWESNGQPENNYKTTPPVLDSDGSFFLVSKLTVDKSRWQQGNVFSCSVMHEALHNHYTQKSLSLSPDYKDDDDK
chain: EPKSSDKTHTCPPCPAPELLGGPSVFLFPPKPKDTLMISRTPEVTCVVVDVSHEDPEVKFNWYVDGVEVHNAKTKPREEQYNSTYRVVSVLTVLHQDWLNGKEYKCKVSNKALPAPIEKTISKAKGQPREPQVCTLPPSRDELTKNQVSLWCLVKGFYPSDIAVEWESNGQPENNYKTTPPVLDSDGSFFLYSKLTVDKSRWQQGNVFSCSVMHEALHNRYTQKSLSLSP
light: DIVMTQSPLSLPVTPGEPASISCRSSQSLVHSNRNTYLHWYQQKPGQAPRLLIYKVSNRFSGVPDRFSGSGSGTDFTLKISRVEAEDVGVYYCGQGTQVPYTFGQGTKLEIKRTVAAPSVFIFPPSDEQLKSGTASVVCLLNNFYPREAKVQWKVDNALQSGNSQESVTEQDSKDSTYSLSSTLTLSKADYEKHKVYACEVTHQGLSSPVTKSFNRGEC
notes: one-arm antibody
B2: CE115HA000 W33H one-arm antibody (antibody, human IgG1, kappa, L234A L235A, N297A, name in Kabat numbering)
heavy: B1 heavy with W33H, K60T
chain: B1 chain
light: B1 light
notes: one-arm antibody
B3: CE115HA000 W33D one-arm antibody (antibody, human IgG1, kappa, L234A L235A, N297A, name in Kabat numbering)
heavy: B1 heavy with W33D, K60T
chain: B1 chain
light: B1 light
notes: one-arm antibody
B4: CE115HA000 W33L one-arm antibody (antibody, human IgG1, kappa, L234A L235A, N297A, name in Kabat numbering)
heavy: B1 heavy with W33L, K60T
chain: B1 chain
light: B1 light
notes: one-arm antibody
B5: CE115HA000 Y58K one-arm antibody (antibody, human IgG1, kappa, L234A L235A, N297A, name in Kabat numbering)
heavy: B1 heavy with K60T, Y61K
chain: B1 chain
light: B1 light
notes: one-arm antibody
B6: CE115HA000 V11L one-arm antibody (antibody, human IgG1, kappa, L234A L235A, N297A, name in Kabat numbering)
heavy: B1 heavy with V11L, K60T
chain: B1 chain
light: B1 light
notes: one-arm antibody
B7: CE115HA000 Y55D one-arm antibody (antibody, human IgG1, kappa, L234A L235A, N297A, name in Kabat numbering)
heavy: B1 heavy with Y58D, K60T
chain: B1 chain
light: B1 light
notes: one-arm antibody
B8: CE115HA000 Y58A one-arm antibody (antibody, human IgG1, kappa, L234A L235A, N297A, name in Kabat numbering)
heavy: B1 heavy with K60T, Y61A
chain: B1 chain
light: B1 light
notes: one-arm antibody
B9: CE115HA000 Y55G one-arm antibody (antibody, human IgG1, kappa, L234A L235A, N297A, name in Kabat numbering)
heavy: B1 heavy with Y58G, K60T
chain: B1 chain
light: B1 light
notes: one-arm antibody
B10: CE115HA000 Y59A one-arm antibody (antibody, human IgG1, kappa, L234A L235A, N297A, name in Kabat numbering)
heavy: B1 heavy with K60T, Y62A
chain: B1 chain
light: B1 light
notes: one-arm antibody
B11: CE115HA000 W33A one-arm antibody (antibody, human IgG1, kappa, L234A L235A, N297A, name in Kabat numbering)
heavy: B1 heavy with W33A, K60T
chain: B1 chain
light: B1 light
notes: one-arm antibody
B12: CE115HA000 W33F one-arm antibody (antibody, human IgG1, kappa, L234A L235A, N297A, name in Kabat numbering)
heavy: B1 heavy with W33F, K60T
chain: B1 chain
light: B1 light
notes: one-arm antibody
B13: CE115HA000 Y59E one-arm antibody (antibody, human IgG1, kappa, L234A L235A, N297A, name in Kabat numbering)
heavy: B1 heavy with K60T, Y62E
chain: B1 chain
light: B1 light
notes: one-arm antibody
B14: CE115HA000 W33Y one-arm antibody (antibody, human IgG1, kappa, L234A L235A, N297A, name in Kabat numbering)
heavy: B1 heavy with W33Y, K60T
chain: B1 chain
light: B1 light
notes: one-arm antibody
B15: CE115HA000 Y59D one-arm antibody (antibody, human IgG1, kappa, L234A L235A, N297A, name in Kabat numbering)
heavy: B1 heavy with K60T, Y62D
chain: B1 chain
light: B1 light
notes: one-arm antibody
B16: CE115HA000 Y58D one-arm antibody (antibody, human IgG1, kappa, L234A L235A, N297A, name in Kabat numbering)
heavy: B1 heavy with K60T, Y61D
chain: B1 chain
light: B1 light
notes: one-arm antibody
B17: CE115HA000 D101A one-arm antibody (antibody, human IgG1, kappa, L234A L235A, N297A, name in Kabat numbering)
heavy: B1 heavy with K60T, D110A
chain: B1 chain
light: B1 light
notes: one-arm antibody (one Fab)
B18: CE115HA000 A99D one-arm antibody (antibody, human IgG1, kappa, L234A L235A, N297A, name in Kabat numbering)
heavy: B1 heavy with K60T, A105D
chain: B1 chain
light: B1 light
notes: one-arm antibody (one Fab)
B19: CE115HA000 A99F one-arm antibody (antibody, human IgG1, kappa, L234A L235A, N297A, name in Kabat numbering)
heavy: B1 heavy with K60T, A105F
chain: B1 chain
light: B1 light
notes: one-arm antibody (one Fab)
B20: CE115HA000 A56N one-arm antibody (antibody, human IgG1, kappa, L234A L235A, N297A, name in Kabat numbering)
heavy: B1 heavy with A59N, K60T
chain: B1 chain
light: B1 light
notes: one-arm antibody (one Fab)
B21: CE115HA000 A56L one-arm antibody (antibody, human IgG1, kappa, L234A L235A, N297A, name in Kabat numbering)
heavy: B1 heavy with A59L, K60T
chain: B1 chain
light: B1 light
notes: one-arm antibody (one Fab)
B22: CE115HA000 A56Y one-arm antibody (antibody, human IgG1, kappa, L234A L235A, N297A, name in Kabat numbering)
heavy: B1 heavy with A59Y, K60T
chain: B1 chain
light: B1 light
notes: one-arm antibody (one Fab)
B23: CE115HA000 A56Q one-arm antibody (antibody, human IgG1, kappa, L234A L235A, N297A, name in Kabat numbering)
heavy: B1 heavy with A59Q, K60T
chain: B1 chain
light: B1 light
notes: one-arm antibody (one Fab)

The binders below were run against T1, CD3 epsilon homodimer protein (UniProt P07766 23-126) (assay: SPR Biacore T200, antibody over immobilised CD3e homodimer;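 also: CD3 epsilon homodimer amine-coupled on a CM4 chip, run at 25 °C in HBS-EP+, Z = bound amount of each single-residue H chain variant over that of the parent antibody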).
T1 construct: also called CD3 (CD3 epsilon)
T1 sequence (P07766 23-126): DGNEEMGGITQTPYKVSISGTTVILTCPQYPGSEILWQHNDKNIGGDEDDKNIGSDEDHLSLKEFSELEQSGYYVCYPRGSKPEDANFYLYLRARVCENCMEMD
With B1 the “ratio of amounts bound (Z=Y/X vs CE115HA000)” value was 1.32. In the case of B2, the “ratio of amounts bound (Z=Y/X vs CE115HA000)” value is reported as 0.13. With B3 the “ratio of amounts bound (Z=Y/X vs CE115HA000)” value was 0.1. B4 was tested, and the “ratio of amounts bound (Z=Y/X vs CE115HA000)” value was 0.1. B5 was tested, and the “ratio of amounts bound (Z=Y/X vs CE115HA000)” value was 0.3. For B6, the “ratio of amounts bound (Z=Y/X vs CE115HA000)” value was 1. For B7, the “ratio of amounts bound (Z=Y/X vs CE115HA000)” value was 0.45. For B8, the “ratio of amounts bound (Z=Y/X vs CE115HA000)” value was 0.22. B9 was tested, and the “ratio of amounts bound (Z=Y/X vs CE115HA000)” value was 0.55. In the case of B10, the “ratio of amounts bound (Z=Y/X vs CE115HA000)” value is reported as 0.85. With B11 the “ratio of amounts bound (Z=Y/X vs CE115HA000)” value was 0.1. With B12 the “ratio of amounts bound (Z=Y/X vs CE115HA000)” value was 0.65. With B13 the “ratio of amounts bound (Z=Y/X vs CE115HA000)” value was 0.66. In the case of B14, the “ratio of amounts bound (Z=Y/X vs CE115HA000)” value is reported as 0.66. With B15 the “ratio of amounts bound (Z=Y/X vs CE115HA000)” value was 0.7. B16 was tested, and the “ratio of amounts bound (Z=Y/X vs CE115HA000)” value was 0.11.

The binders below were run against T2, CD3 epsilon homodimer protein (UniProt P07766 23-126) (assay: SPR Biacore T200, CD3 epsilon homodimer on CM4 chip, antibody as analyte;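 also: Amine-coupled CD3 epsilon homodimer, run at 25 °C in HBS-EP+ buffer, ratio is bound amount of each single-residue H chain variant over that of the parent antibody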).
T2 construct: Immobilized on Sensor chip CM4 by amine coupling; construct not described; also called CD3 (CD3 epsilon)
T2 sequence (P07766 23-126): as above
With B17 the “ratio of amounts bound (Y/X vs CE115HA000)” value was 1.26. In the case of B18, the “ratio of amounts bound (Y/X vs CE115HA000)” value is reported as 0.28. For B19, the “ratio of amounts bound (Y/X vs CE115HA000)” value was 1.43. With B20 the “ratio of amounts bound (Y/X vs CE115HA000)” value was 0.87. In the case of B21, the “ratio of amounts bound (Y/X vs CE115HA000)” value is reported as 0.8. B22 was tested, and the “ratio of amounts bound (Y/X vs CE115HA000)” value was 0.66. B23 was tested, and the “ratio of amounts bound (Y/X vs CE115HA000)” value was 0.76.

Reference: patent US20240270846A1 (published 2024)
